Results reported in article PMC11641776, “Biophysical Characterization of a Novel Phosphopentomutase from the Hyperthermophilic Archaeon Thermococcus kodakarensis” (International Journal of Molecular Sciences, 2024).

Target: the molecule itself
Assay: SEC; HiLoad 16/60 Superdex 200 Prep Grade column, 50 mM HEPES pH 7.0, 200 mM NaCl; elution at 61 mL, compared with standards

B1: Phosphopentomutase from Thermococcus kodakarensis (PPMTk) (enzyme)
chain: RLFGTAGIRGTLWEKVTPELAMKVGMAVGTYKSGKALVGRDGRTSSVMLKNAMISGLLSTGMEVLDADLIPTPALAWGTRKLADAGVMITASHNPPTDNGVKVFNGDGTEFYVEQERGLEEIIFSGNFRKARWDEIKPVRNVEVIPDYINAVLDFVGHETNLKVLYDGANGAGSLVAPYLLREMGAKVLSVNAHVDGHFPGRKPEPRYENIAYLGKLVRELGVDLAIAQDGDADRIAVFDEKGNYVDEDTVIALFAKLYVEEHGGGTVVVSIDTGSRIDAVVERAGGRVVRIPLGQPHDGIKRYKAIFAAEPWKLVHPKFGPWIDPFVTMGLLIKLIDENGPLSELVKEIPTYYLKKANVLCPDEYKAEVVRRAAEEVERKLSSEIKEVLTISGFRIALNDGSWILIRPSGTEPKIRVVAEAPTEKRRDELFEMAYSTVSRIVKEAEKK
notes: Phosphopentomutase PPMTk of Thermococcus kodakarensis, encoded by open reading frame TK1777; UniProt entry Q6I7B6; residues 3-447 are modelled in each of the four protomers of the crystal structure; the tag was cut off with TEV protease before SEC and the later analyses; also called TK1777; Tk1777; not shown: His6, N-terminal, cleaved
In the case of B1, the “stoichiometry N” value is reported as 4.
